From paper PMC11046469, “Leveraging a Phage-Encoded Noncanonical Amino Acid: A Novel Pathway to Potent and Selective Epigenetic Reader Protein Inhibitors” (ACS Central Science, 2024)
Where a SMILES comes first, the peptide text is derived from it. The star is where a group is joined. Butyryl = CCCC(=O)*

These compounds were tested against T1, ENL YEATS domain (AviSUMO-ENL YEATS) (Homo sapiens, UniProt Q03111) (assay: Phage panning of BuK-containing 7-mer library against AviSUMO-ENL YEATS with Illumina NGS abundance). Details: sheet ENLR3: round 3 of panning against ENL YEATS; TAG = amber codon (BuK); 7-mer library positions V1-V7.
T1 construct: encoding ENL YEATS (aa 1−148) was cloned in pET28a-; made in house; host or cells: E. coli BL21(DE3pLysS), co-expressed with BirA (pBirAcm)
T1 sequence (Q03111 1-148): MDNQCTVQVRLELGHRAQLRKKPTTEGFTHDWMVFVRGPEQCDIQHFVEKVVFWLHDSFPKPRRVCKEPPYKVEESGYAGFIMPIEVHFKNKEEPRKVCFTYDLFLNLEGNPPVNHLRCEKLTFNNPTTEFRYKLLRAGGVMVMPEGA
In short: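 Phage displaying BuK-containing amber-obligate 7-mer peptides, made with 5 mM BuK, was panned against biotinylated AviSUMO-ENL YEATS on streptavidin beads with washes of rising stringency. Rounds 1 and 3 were sequenced by Illumina NGS, and sequences with mismatches were filtered out before copy-number abundance was counted.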

Compound | n (number of NGS reads of the unique amino acid sequence) | percent (share of sequence reads) [%]
YAIYCYTAG | 7 | 0.006374
YDAYCYTAG | 11 | 0.01002
YDDYCYTAG | 2 | 0.001821
YDFYCYTAG | 51 | 0.04644
YDLYCYTAG | 3 | 0.002732
YDVCCYTAG | 6 | 0.005464
YDVHCYTAG | 5 | 0.004553
YDVYCCTAG | 5 | 0.004553
YDVYCFTAG | 2 | 0.001821
YDVYCHTAG | 13 | 0.01184
YDVYCNTAG | 3 | 0.002732
YDVYCYL | 2 | 0.001821
YDVYCYTAG | 60611 | 55.1932
YDVYCYW | 26 | 0.02368
YDVYCYY | 26 | 0.02368
YDVYWYTAG | 3 | 0.002732
YDVYYYTAG | 7 | 0.006374
YEVYCYTAG | 2 | 0.001821
YLYTAGFPC | 5 | 0.004553
YLYTAGVPC | 1006 | 0.9161
YNVYCYTAG | 10 | 0.009106
YVGPWTAGG | 41 | 0.03734
YVVYCYTAG | 4 | 0.003642

Other lines, results leading:

n (number of NGS reads of the unique amino acid sequence) | percent (share of sequence reads) [%] | Compound
10 | 0.009106 | WWVFDATAG
4 | 0.003642 | WWVIETAGG
3 | 0.002732 | YDIYCYTAG
8 | 0.007285 | YDVFCYTAG
3 | 0.002732 | YDVYCTAGTAG
15 | 0.01366 | YDVYCYQ
47 | 0.0428 | YDVYFYTAG
9 | 0.008196 | YDVYRYTAG
3 | 0.002732 | YDVYSYTAG
13 | 0.01184 | YGVYCYTAG
2 | 0.001821 | YHVYCYTAG
6 | 0.005464 | YLYYVPC
38 | 0.0346 | YYVYCYTAG

Same assay, conditions: sheet ENLR3: round 3 of selection against ENL YEATS; TAG = amber codon (BuK)

Compound | n (number of NGS reads of the 7-mer sequence V1-V7) | percent (share of NGS reads of the 7-mer sequence V1-V7) [%]
WWVLVTAGS | 1 | 0.0009106
YAVYCYTAG | 1 | 0.0009106
YDVYCSTAG | 1 | 0.0009106
YDVYCYE | 1 | 0.0009106
YLYLVPC | 1 | 0.0009106
YLYTAGAPC | 1 | 0.0009106
YLYTAGVHC | 1 | 0.0009106
YLYVTAGAC | 1 | 0.0009106
YPCVCFTAG | 1 | 0.0009106
YRWVFSF | 1 | 0.0009106
YVCPWTAGG | 1 | 0.0009106
YWTAGCARV | 1 | 0.0009106

Second part, the compound after the results:

n (number of NGS reads of the 7-mer sequence V1-V7) | percent (share of NGS reads of the 7-mer sequence V1-V7) [%] | Compound
1 | 0.0009106 | YDGPWTAGG
1 | 0.0009106 | YDGYCYTAG
1 | 0.0009106 | YDVYCYK
1 | 0.0009106 | YGTAGHDFF
1 | 0.0009106 | YLDDTAGLH
1 | 0.0009106 | YLTLFTAGG
1 | 0.0009106 | YLYTAGVPF
1 | 0.0009106 | YVGPLTAGG

The compounds below were run against T2, ENL YEATS domain (His-ENL YEATS) (Homo sapiens, UniProt Q03111) (assay: AlphaScreen inhibition of ENL YEATS binding to biotinylated H3K27cr peptide). Details: mean ± SD, n = 3.
T2 construct: (aa 1−148) was cloned in pET19b; made in house; host or cells: E. coli BL21(DE3pLysS)
T2 sequence (Q03111 1-148): T1 sequence (Q03111 1-148)
Excerpt: To test the inhibition potency of the two selected peptides for the ENL YEATS domain, ENL-S1 and ENL-S2 were chemically synthesized through solid-phase peptide synthesis (SPPS) and evaluated by an AlphaScreen assay. In this assay, a biotinylated H3K27cr peptide and a 6xHis-tagged ENL YEATS domain (His-ENL YEATS) were immobilized on PerkinElmer streptavidin donor and nickel-chelating (Ni-NTA) acceptor beads, respectively. The use of a His-ENL YEATS instead of the original AviSUMO-ENL YEATS construct in the assay prevents potential false positive results derived from ligands which bind to the SUMO protein but not to the ENL YEATS domain. […] We then assessed the binding affinity of two ligands for the ENL YEATS domain using biolayer interferometry (BLI). Briefly, His-ENL was immobilized onto Ni-NTA functionalized biosensors to measure the binding kinetics of target peptides at different concentrations. […] As a small peptide directly selected from a phage display library, this level of high potency was unexpected. […] However, shorter-than-10-mer linear peptides with nanomolar binding potency have rarely been directly selected from phage display libraries. One example was S2P03, a 7-mer peptide that has a KD value as 49 ± 9 nM to bind to SIRT2.[10] This peptide contained BuK and was identified also from a BuK-containing phage display library using the active site-directed ligand selection technique. Taken together, the two examples confirmed that utilizing phage display libraries incorporated with a ncAA serving as a ligand for a protein target for active site-directed ligand selection is a successful method for identifying ultrahigh potency ligands for epigenetic proteins including both enzymes and readers. For ENL-S1 and ENL-S2, their determined kon and koff values were 6.23 ± 0.07 × 10^4 M^–1 s^–1, […] and […], 5.54 ± 0.02 × 10^–3 s^–1, respectively. Compared to ENL-S2, ENL-S1 has faster binding to the ENL YEATS domain and slower release from it, indicating its potential long-term action on the ENL YEATS inhibition. […]
Characterization of Selected Peptide Inhibitors
AlphaScreen Assay to Validate ENL Inhibitors:
His-ENL, His-AF9 (aa 1-149, EpiCypher), and biotinylated H3K27cr (aa 15-33, EpiCypher) were used to assay the synthesized inhibitors. The lyophilized peptide inhibitors were dissolved in DMF […]
and serially diluted into assay buffer (50 mM HEPES, 100 mM NaCl, 0.1% BSA, 0.05% CHAPS, pH 7.4) and incubated in the presence of 120 nM His-tagged protein at 37 °C for 30 minutes. 12.5 μL of biotinylated H3K27cr (400 nM) was aliquoted into a light gray 384-well Alphaplate (Perkin Elmer) and incubated at 37 °C. 12.5 μL of the inhibitor/protein solution was added to the H3K27cr solution, and incubated for 30 minutes at 37 °C. 25 μL of AlphaScreen histidine (nickel chelate) detection beads (Perkin Elmer) was added at 20 μg/mL each bead (streptavidin donor beads and nickel chelate acceptor beads), and the plate was incubated at 37 °C for 30 minutes. The plate was cooled to room temperature for 10 minutes, and then the beads were excited at 680 nm and the luminescence at 615 nm was read. […]
Biolayer […]
interferometry assays were performed in 96 well plates (GreinerBio-One, polypropylene, flat-bottom) using an Octet Red96 System (Sartorius). Wells were filled with 200 μL of assay buffer, blocking buffer (assay buffer + 0.1% BSA), protein solution, peptide solution, regeneration solution, and reload solution. For immobilization, His-tagged proteins were immobilized onto Ni-NTA sensors at 20 for 600 s. Sensors were then dipped into blocking buffer for 180 s, assay […] buffer for 300 s, peptide solution for 300 s, and back to assay buffer for 300 s. If multiple samples were tested, Ni-NTA sensors can be reconditioned in regeneration (10 mM glycine, pH 1.7) solution followed by reload solution (10 mM NiCl2) for 30 and 60 s, respectively. Measurements […]

IC50 [nM] | Compound
> 2000 | CCCC(=O)NCCCC[C@H](NC(=O)[C@H](Cc1ccc(O)cc1)NC(=O)[C@H](C)NC(=O)[C@H](Cc1ccc(O)cc1)NC(=O)[C@@H](NC(=O)[C@H](CC(=O)O)NC(=O)[C@@H](N)Cc1ccc(O)cc1)C(C)C)C(N)=O [ENL-S1A5] (H-YDVYAYK(Butyryl)-NH2; N-terminus assumed)
